B1: scFv 2447_3A09 (scFv)
scFv: EVQLLESGGGLVQPGRSLRLSCAATGFTFDDYAMHWVRQAPGKGLEWVSGISWNSGSIGYADSVKGRFTISRDNAKNSLYLQMNSLRAEDTASYYCAKDVSSGWYWYAFDIWGQGTLVTVSSGGGGSGGGGSGGGASSYELTQDPAVSVALGQTVRITCQGDSLRSYYASWYQQKPGQAPVLVIYGKNNRPSGIPGRFSGSSSGNTASLTVTGAQAEDEADYYCNSRDSGGSVVFGGGTKLTVL
notes: also called #5
B2: scFv 2447_3A12 (scFv)
scFv: EVQLVQSGAEVKKPGASVKVSCKASGYTFTSYGISWVRQAPGQGLEWMGWISAYNGNTNYAQKLRGRVTMTTDTSTSTAYMELRSLRSDDTAVYYCARDPHILTGYYRGGWFDPWGQGTLVTVSSGGGGSGGGGSGGGASSYELTQDPAVSVVLGQTVRITCQGDSLRSYYASWYQQKPGQAPVLVIYGKNNRPSGIPDRFSGSSSGNTASLTITGAQAEDEADYYCNSRDSSGNHRVFGGGTKLTVL
notes: also called #6
B3: scFv 2447_3C08 (scFv)
scFv: EVQLLESGGGLVQPGGSLRLSCAASGFTFDDYAMHWVRQAPGKGLEWVSGISWNSGSIGYADSVKGRFTISRDNAKNSLYLQMNSLRAEDTALYYCAKDRGSGYEGNYYGMDVWGQGTLVTVSSGGGGSGGGGSGGGASSYELTQDPAVSVALGQTVRITCQGDSLRSYYASWYQQKPGQAPVLVIYGKNNRPSGIPDRFSGTTSGNTASLTITGAQAEDEADYYCNSRDSSGNHYVFGTGTKVTVL
B4: positive control scFv G03 (scFv)
scFv: EVQLVQSGAEVKKPGATVKISCKVSGYTFTSYWMHWVQQAPGKGLEWIGYINPGTGYIEYNQKFKDRVTITADKSTDTAYMELSSLRSEDTAVYYCASSTAPFDYWGQGTLVTVSSGGGGSGGGGSGGGASEIVLTQSPGTLSLSPGERATLSCKASQDIKSYLSWYQQKPGQAPRLLIYYATRLADGIPDRFSGSGSGTDFTLTISRLEPEDFAVYYCLQYDESPYTFGQGTKLEIK
B5: scFv 2447_3A01 (scFv)
scFv: EVQLLESGGGLVQPGGSLRLSCAASGFTFDDYAMHWVRQAPGKGLEWVSGISWNSGSIVYADFVKGRFTISRDNAKNSLYLQMNSLRAEDTALYYCAKDISSGWYPGTFDYWGQGTLVTVSSGGGGSGGGGSGGGASSYELTQDPAVSVALGQTVRITCQGDSLRSYYASWYQQKPGQAPVLVIYGKNNRPSGIPDRFSGSSSGNTASLTVTGAQAEDEADYYCSSRDSSDDVVFGGGTQLTVL
B6: scFv 2447_2H08 (scFv)
scFv: EVQLVQSGAEVKKPGASVKVSCKASGYTFTNYGISWVRQAPGQGLEWMGWISAYNGNTNYAQKLQGRVTMTTDTSTSTAYMELRSLRSDDTAVYYCARDPHILTGYYRGGWFDPWGQGTTVTVSSGGGGSGGGGSGGGASSYELTQDPAVSVALGQTVTITCQGDSLRTSYAGWLQQKPGQAPVLVLYGKTSRPSGIPDRFSGSTSGNTASLTITGAQAEDEAEYFCHSRDSNDNYLEVVFGGGTKLTVL
B7: scFv 2447_3A08 (scFv)
scFv: EVQLVQSGAEVKKPGASVKVSCKASGYTFTSYGISWVRQAPGQGLEWMGWISAYNGNTNYAQKLQGRVTMTTDTSTSTAYMELRSLRSDDTAVYYCARDRATIFGVVTPFDYWGQGTLVTVSSGGGGSGGGGSGGGASSYELTQDPAVSVALGQTVRITCQGDSIRSYSASWYQQKPGQAPRLVIYGKNNRPSGIPDRVSGSTSGNTASLTVTGAQAEDEADYYCNSRDSSGNRVVFGGGTQLTVL
B8: scFv 2447_3H08 (scFv)
scFv: EVQLLESGGGLVQPGRSLRLSCAASGFTFDDYAMHWVRQAPGKGLEWVSGISWNSGSIDYADSVKGRFTISRDNSKNTLYLQMNSLRAEDTAVYYCARDRSSGWYTGSFDYWGQGTLVTVSSGGGGSGGGGSGGGASSYELTQDPAVSVALGQTVRITCQGDSLRSYYASWYRQKPGQAPVLVIYGKNNRPSGIPDRFSGSSSGNTASLTIIGAQAEDEADYYCQSRDSSDNRVLFGGGTKVTVL
notes: also called #10
B9: scFv 2447_3H02 (scFv)
scFv: EVQLLESGGGLVQPGRSLRLSCAASGFTFDDYAMHWVRQAPGKGLEWVSGISWDSGSIGYADSVKGRFTISRDNAKNSLYLQMNSLRAEDTALYYCAKDVSSGWYWYAFDIWGQGTLVTVSSGGGGSGGGGSGGGASSYELTQDPAVSVALGQTVRITCQGDILRSYYASWYQQKPGQAPVLVIYGKNNRPSGIPDRFSGSSSGNTASLTITGAQAEDEADYYCNSRDSSGNRVVFGGGTKLTVL
notes: also called #9
B10: scFv 2447_3B07 (scFv)
scFv: QVQLVESGGVVVQPGGSLRLSCAASGFTFDDYAMHWVRQAPGRGLEWVSLTSWDGGSTYYADSVKGRFTISRDNSKNSLYLQMNSLRAEDTALYYCAKDHSSGWYNGGMDVWGQGTMVTVSSGGGGSGGGGSGGGASSYELTQDPAVSVALGQTVRITCQGDSLRSYYASWYQQKPGQAPVLVIYGKNNRPSGIPDRFSGSSSGNTASLTITGAQAEDEADYYCNSRDSSGNHVVFGGGTKLTVL

Each binder was assayed against T1, mucin1 (MUC1) naturally expressed on human breast cancer cell lines (human, UniProt P15941 24-1255) (assay: flow cytometry (PE MFI, corrected to G03 at 380 ug/mL) on T47D cells).
T1 construct: whole, on cells; The cell line of each entry is named under assay or readout; also called MUC1 on T47D cells; MUC1 on HCC70 cells
T1 sequence (P15941 24-1255): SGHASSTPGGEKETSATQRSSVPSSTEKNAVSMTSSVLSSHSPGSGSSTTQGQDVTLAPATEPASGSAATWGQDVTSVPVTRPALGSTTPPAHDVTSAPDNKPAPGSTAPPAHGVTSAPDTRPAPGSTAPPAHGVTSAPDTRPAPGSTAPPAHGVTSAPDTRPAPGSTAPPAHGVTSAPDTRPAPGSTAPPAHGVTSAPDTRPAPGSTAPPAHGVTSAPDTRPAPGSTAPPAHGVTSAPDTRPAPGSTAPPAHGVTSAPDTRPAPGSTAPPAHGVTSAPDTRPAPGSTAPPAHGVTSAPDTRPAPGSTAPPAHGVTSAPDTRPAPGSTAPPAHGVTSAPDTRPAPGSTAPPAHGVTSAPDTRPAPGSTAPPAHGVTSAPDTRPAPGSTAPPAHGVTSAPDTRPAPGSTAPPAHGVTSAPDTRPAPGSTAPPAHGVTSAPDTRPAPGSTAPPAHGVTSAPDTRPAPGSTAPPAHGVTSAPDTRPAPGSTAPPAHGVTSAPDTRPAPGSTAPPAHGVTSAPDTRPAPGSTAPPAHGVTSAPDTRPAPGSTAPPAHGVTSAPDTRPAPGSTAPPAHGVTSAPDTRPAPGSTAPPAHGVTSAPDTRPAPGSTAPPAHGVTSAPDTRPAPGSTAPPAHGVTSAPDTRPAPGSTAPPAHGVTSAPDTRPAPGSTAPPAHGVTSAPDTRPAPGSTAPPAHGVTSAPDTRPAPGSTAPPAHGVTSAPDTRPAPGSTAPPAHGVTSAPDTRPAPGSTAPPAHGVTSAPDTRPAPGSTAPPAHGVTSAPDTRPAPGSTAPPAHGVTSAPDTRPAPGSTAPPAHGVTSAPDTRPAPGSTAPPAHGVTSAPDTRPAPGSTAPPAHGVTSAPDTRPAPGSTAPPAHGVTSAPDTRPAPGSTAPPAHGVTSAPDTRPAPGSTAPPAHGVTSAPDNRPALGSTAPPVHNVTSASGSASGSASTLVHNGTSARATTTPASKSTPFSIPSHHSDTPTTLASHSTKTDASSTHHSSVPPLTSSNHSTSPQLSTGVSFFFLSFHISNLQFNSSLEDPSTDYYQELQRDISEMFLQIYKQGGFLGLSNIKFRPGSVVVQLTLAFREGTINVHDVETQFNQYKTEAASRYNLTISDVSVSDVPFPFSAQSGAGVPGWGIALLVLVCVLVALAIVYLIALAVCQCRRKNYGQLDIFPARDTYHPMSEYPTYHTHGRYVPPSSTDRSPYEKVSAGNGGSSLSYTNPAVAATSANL
Binder B1 has an EC50 of 2.2 µg/mL.
For B2, the EC50 was 0.75 µg/mL.
For B3, the EC50 was 2.04 µg/mL.
Work on B4 yielded an EC50 of 3.56 µg/mL.
B5 gave an EC50 of 11.1 µg/mL.
B6 showed an EC50 of 130 µg/mL.
B7 gave an EC50 of 3.76 µg/mL.
B8 gave an EC50 of 5.6 µg/mL.
Work on B9 yielded an EC50 of 1.6 µg/mL.
Binder B10 has an EC50 of 3.47 µg/mL.

Source: patent US20250281533A1 (LG CHEM, published 2025)
